Assay: soluble on expression in E. coli; label from the status in PepcDB or PDB records

Soluble on expression in E. coli, not soluble:
MSLDDLLKEVLKDKRLLEVLRHLKRANVDYGKSIMLNTKIPLTEVLDVLDKLESLGLIERVTGATLKNTEAKFKLSQEVHKHHTYYRLTRDGDHLLRRLDEKDIIDAYAEIVKDDEVGLKLLYYAEELHSDHALTYSKLLRKPLEEITPKIEELERMGLMEEKNSKVIKFRERRAKPEGHHHHHH, MRQRYLALLSLFASLPAMAISFQTRLESIEWKVEGDQFECRLTQPITDFGAGEFVRRAGEQATFRLKASYNMLGNGSATLLAAAAPWQPGRGDINLGSVRVSNGDIPFNTSQAQAGRLISGLMDGRSPLIRHYNRDGGQMEVRLLPVKFSKAFSDYQACTAKLLPMNFDQVKQAEVGFPGGGIELDANAKARLDNMVAYLKADPTVNRIELDGHSDNSGNRLTNRDLSRRRALAVMDYFKAQGIPEQQITLRFHGERYPLAPNTNNANRARNRRVNVHLERVAPDERPVPVASSASAAHTS, MAKDLLLEIGLEEMPAHVVTPSRIQLEEKVIKFLDEHHLDYETVQSFATPRRLAVKVTAIPEKQADVEEEVKGPAKKIALDAEGNWSKAAQGFVRGQGVTTEDIVFKELNGVEYVYVTKFTKGQSAKEVLTKLNDVITSLTFPVTMHWANYDFEYIRPIHWIVALLDDEVIPFKVLDVTTGQTSRGHRFLGDDVTFQHANEYEAKLKEQFVVVQPNERKQMIVDQANALAAEKNWQLALDEELLEEVTNLVEYPTAFVGSFDEKYLSVPDEVLVTSMKEHQRYFDVRNDQGLLMPHFIAVRNGDNVHLENVIKGNEKVLIARLEDAEFFYNEDKKLTIEACVEKLKNVTFHEKIGSIYEKMQRVALIAQIIGRKVGLSEDELEDLKRASEIYKFDLVTNMVGEFPELQGIMGEKYALLQGEKPAVATAIREHYLPTSSEGELPETAIGAVLALADKLDSVFSFFSVGMIPTGSNDPYALRRQTYGVIRIIEDKGWTFPLVQLQTEVDEAVNQDVEKYGVLLNEGQAEVVEFVKARLRQLLMTKNVRHDIIDAVVSAEQADLSKLFASANILKSRFEDQDFKPSMEALTRVINLAKKGQELLGDTEEGIDPSLFENKAEKELYQAVNDLSEAFATRTIAENYEALVNLRPLIDAYFNETMVMVEDEKVKQNRLKQLMQIAKMALSIASLDLLIVK, MAHHHHHHMSRSSLIFENNNDNNEKKKRKLFQDEYNYQSCYPLSYLNVYNNNNNNNHNSNNNSNNDNNRIYDYAYSQSYNYTYDQTYNDVYNKIYNDSKNIAQNVLNVQVNEEPYDKSLNNSHTTYPFSNIINSNQLNSNILNNNEMIDMRNFYENGNFVNPMIENKDQNQFNEPNKNNLNNTMANVNNINNINNIQFDKSLLINCIDVLLNFMNYNNLKDTITEETLHENLINLRFYILRLNGGKVSQKKITEYFHKM

Soluble on expression in E. coli, soluble:
MAHHHHHHMETVDALDYSELVALNQEEALRRVLASYPRIGLQATELGRARRIVQRALYHKRAGDAVFLAYTSNLISSGLRDTFACLARDRLIDGFISTAGGIEEDAIKCLGKTLVGQFSLDGRELRRCGVNRTGNLLVPNDNYCHFENFFMPVLKHLHELQRESRWETMTAPSEMIAAIGAALGCKHPETCSDSLLYWCYRNNIPVFSPALTDGSIGDMIYFYNYSKKGLVLDPIVDVVRLRELGCRNRRCDDSQGGNRSQNNNGRTTCIVLGGGLPKHHLLQNVRADTVVYVSTGLEVDASPSSCNVAEDRANGVLLDNCEVVRVHGDASFVFPLLLCKAETSADTHKDVAA, MAHHHHHHMYVVGPMVDQSELPFRMLCRRYGATLAYSPMLHARSFAQSAQYRARYFSTTPHRAEPAMTATVSGEGEAAEDAGRTSDGKETDHPLFVQFCGNDADTLLAAARHVEDDCEAVDVNLGCPQGIARRGHYGSFLMEDWDRVHNILHCLAVELRVPVTAKMRVFDDDALTLKYAEMLRDTGIAVLCVHGRTRHNKRGLADMEKIRRVREHLRGSIPVIGNGNVLTFEDVRRNMSVTMTDGYMCAEPLLWDPRLFAAPLHPVRNGRCFAECCEARLDAIRTAQEYLQLVQRYPVDLAFVKAHLFKMLFHSYEMHPVMHGWLTNFSCNGRGGNNNNNAGSDVNGEVEDGDIDDGRSPDGASESGSGNANKAESNVKQAAGNLDFFAFAMDALGEHLRQLYAAEVSCGVEGPQPKRAHEREKGVNDDTSSSAKRKVETSHDAFAEDDVFGIDFDLNKK, MPQNYPWLNTEQPLSIKQLNGRVVILDFWTYCCINCLHVLPDLKYLEQKYKDSLTVIGVHSAKFDNEQETENIRQAILRYDIEHPVLVDKDFRVWQEYAVRAWPTLMVIDPKGYVIGYVSGEGNRDKLDQLITQVIQEHQGAINFQQLSLTLEKQRQPLITPLAFPGKVLATPSGLFVADSGHHRIVVSDFNGEILHLIGNGKSGLTDGNFQEAQFSAPQGMAFDMENQILYLADTENHALRRVDINQQTVETIAGTGEQSRNIQPHGGVGLETALNSPWDLVNIENSLYIAMAGVHQIWQMDLASGVIKTYAGTGVEACLDASLTESAFAQPSGITNNEQELYIADSEISSIRGVGLVEPQEVRTVCGSGGLFGFGDVDGQGEDVRLQHCLGVEYFQNYLWVADTYNHKIKSVSPHTGNCQTVLGDGLAGLQNGQGKNTRFFEPSGLSAIDSYLYISDTNNHVIRRVDLRTLEVTTMQFNGLCAPDVCIPNNFLEHHHHHH, QTLDIQRGATLFNRACIACHDTGGNIIQPGATLFTKDLERNGVDTEEEIYRQTYFGKGRMPGFGEKCTPRGQCTFGPRLQDEEIKLLAEFVKFQADQGWPTVSTD, MELNDMAQFNEPISSQLLAIDENLTQLVTDIDILSSVNPLNYAQERERFISNKYSQEPNFQYQKAPLDTHQSKRRLYELPLEHIEDTQLQKLYEDVIQSYADKLDQVNTIGTQEFLYNSLRYYGEPSAKDIANAHFILHLPTEEESKPEHDSRSIAHFMQSFADKNGYECEIQILDGMLANALVSGSRVKINSAAHITTDELEALAHHEMGVHLLTTLNGRQQPLKVLSLGCPANTNTQEGLAILCEYLSGHFSIKRLRTLALRVLAVESMIKERDFRHTFMLLKEQYKASDVQAFTITSRVYRGGGLTKDYLYLRGFREVLNAYDKLGDDFSLLLCGKTELKYFDLIRSLVNKGIFTQPKFISPALSTPKQTNPIHRYIVSALKLEHHHHHH, MSLQDSLFQTETGFQPLAARMRPTSLEGYVGQAHLVGPGKPLRRAVEQGQLHSMILWGPPGVGKTTFARLLANVGDLSFETISAVLSGVKEIREVVERARNRKQSQGRDTLLFVDEVHRFNKSQQDAFLPHIEDGTFIFVGATTENPSFELNSALLSRTRVYVLKNLEAADIRRLLDSALESEQGFAGQLRVEESVLATMAEASGGDARRALNILEVAADLAEPDDDGNNRVTAQTLEQVLQTSLRRFDKGGDVFYDQISALHKSVRGSNPDGSLYWLCRMLDGGCDPLYVARRLVRIASEDIGNADPRALQITLQAWDAQERLGSPEGELALAQAVTYLALAPKSNAVYKAYNQCIADIRSDPDYEVPVHLRNAPTKLLKSMGHGEEYRYAHDEPDAYAAGEAYLPEAIYQRRYYQPVQRGLEIKLAEKRERLDSLDANSPKKREGHHHHHH, EKVIIEKAAGDAEAIAFDGRTYMEYHNAVTKSPDALDYPAEPSEKALQSNHFELSIKTEATQGLILWSGKGLERSDYIALAIVDGFVQMMYDLGSKPVVLRSTVPINTNHWTHIKAYRVQREGSLQVGNEAPITGSSPLGATQLDTDGALWLGGMERLSVAHKLPKAYSTGFIGCIRDVIVDRQELHLVEDALNNPTILHCSAK, MGHHHHHHSHMVRKQSPYEDVQKQSRQHDPYKIIEPTPKKYLEGSAYEVIYNHLSYKHEILDKYIETNTAVFWIKKDDIFSVATILRHLGYECLSEMSAIDLCAKKGHFELFYQFVGFSDSCKNRRRVRVKCVLLPNESVDSLSFLYRSANWSEREAYDMLGIVFDKHPYLKRLIMPHDWVGHPLLRSYPLKGDEFAQWYEVDKIFGKEYREVVGKEQRDSARVDEKDTFNFAKIGYEQGKGEELKEVEEKHAFKKIPFVKDLHKIAPTILKKRL, SRPADLLQLVLLLDLPRDLGGMGCSSPPCECHQEEDFRVTCKDIQRIPSLPPSTQTLKLIETHLRTIPSHAFSNLPNISRIYVSIDVTLQQLESHSFYNLSKVTHIEIRNTRNLTYIDPDALKELPLLKFLGIFNTGLKMFPDLTKVYSTDIFFILEITDNPYMTSIPVNAFQGLCNETLTLKLYNNGFTSVQGYAFNGTKLDAVYLNKNKYLTVIDKDAFGGVYSGPSLLLPLGRKSLSFETQKAPRSSMPS
